# Measurements as given in article PMC10499536 (Nature, 2022).
# Target: the molecule itself
# Assay: cryo-EM structure
protein,measurement,value
truncated mouse mIgM heavy chain lacking the two Fab arms (of IgM BCRΔFab; vector pMS-RL2b) (receptor) heavy: AEAAAKEAAAKEAAAKAAVAEMNPNVNVFVPPRDGFSGPAPRKSKLICEATNFTPKPITVSWLKDGKLVESGFTTDPVTIENKGSTPQTYKVISTLTISEIDWLNLNVYTCRVDHRGLTFLKNVSSTCAASPSTDILTFTIPPSFADIFLSKSANLTCLVSNLATYETLNISWASQSGEPLETKIKIMESHPNGTFSAKGVASVCVEDWNNRKEFVCTVTHRDLPSPQKKFISKPNEVHKHPPAVYLLPPAREQLNLRESATVTCLVKGFSPADISVQWLQRGQLLPQEKYVTSAPMPEPGAPGFYFTHSILTVTEEEWNSGETYTCVVGHEALPHLVTERTVDKSTEGEVNAEEEGFENLWTTASTFIVLFLLSLFYSTTVTLFKVK,binding result,binds
